Reference: article doi:10.1101/2022.02.13.480237 (bioRxiv, 2022)
Residue numbers refer to the chain shown, from its start.

T1: GST^4CS-RGA^C374S recombinant protein (Arabidopsis, UniProt Q9SLH3 1-587, C374S)
T1 sequence (looked up): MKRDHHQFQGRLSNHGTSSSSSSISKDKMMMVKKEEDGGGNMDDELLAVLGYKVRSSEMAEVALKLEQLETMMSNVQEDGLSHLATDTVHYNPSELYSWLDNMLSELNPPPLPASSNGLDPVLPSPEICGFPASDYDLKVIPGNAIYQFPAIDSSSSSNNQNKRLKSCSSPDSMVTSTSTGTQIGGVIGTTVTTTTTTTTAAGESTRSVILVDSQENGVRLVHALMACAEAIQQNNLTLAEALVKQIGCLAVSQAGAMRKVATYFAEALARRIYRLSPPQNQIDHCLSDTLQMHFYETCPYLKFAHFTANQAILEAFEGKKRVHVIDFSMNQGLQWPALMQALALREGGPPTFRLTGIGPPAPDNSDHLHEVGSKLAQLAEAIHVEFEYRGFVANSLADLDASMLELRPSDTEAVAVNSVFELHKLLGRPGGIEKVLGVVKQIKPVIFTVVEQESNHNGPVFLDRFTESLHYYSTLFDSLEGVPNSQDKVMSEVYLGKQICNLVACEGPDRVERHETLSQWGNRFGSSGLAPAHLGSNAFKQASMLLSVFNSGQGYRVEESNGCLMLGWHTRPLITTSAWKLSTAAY

T2: GST^4CS-RGA recombinant protein (REPRESSOR-OF-ga1-3) (Arabidopsis, UniProt Q9SLH3 1-587)
T2 sequence (looked up): T1 sequence (looked up) with S374C

B1: His-SLY1 recombinant protein (F-box protein SLEEPY1) (natural protein, Arabidopsis, UniProt Q9STX3 1-151, looked up)
chain: MKRSTTDSDLAGDAHNETNKKMKSTEEEEIGFSNLDENLVYEVLKHVDAKTLAMSSCVSKIWHKTAQDERLWELICTRHWTNIGCGQNQLRSVVLALGGFRRLHSLYLWPLSKPNPRARFGKDELKLTLSLLSIRYYEKMSFTKRPLPESK
B2: His-GID1a recombinant protein (GA-… DWARF1a) (receptor, Arabidopsis, UniProt Q9MAA7 1-345, looked up)
chain: MAASDEVNLIESRTVVPLNTWVLISNFKVAYNILRRPDGTFNRHLAEYLDRKVTANANPVDGVFSFDVLIDRRINLLSRVYRPAYADQEQPPSILDLEKPVDGDIVPVILFFHGGSFAHSSANSAIYDTLCRRLVGLCKCVVVSVNYRRAPENPYPCAYDDGWIALNWVNSRSWLKSKKDSKVHIFLAGDSSGGNIAHNVALRAGESGIDVLGNILLNPMFGGNERTESEKSLDGKYFVTVRDRDWYWKAFLPEGEDREHPACNPFSPRGKSLEGVSFPKSLVVVAGLDLIRDWQLAYAEGLKKAGQEVKLMHLEKATVGFYLLPNNNHFHNVMDEISAFVNAEC
B3: His-GID1c recombinant protein (GA-… DWARF1c) (receptor, Arabidopsis, UniProt Q940G6 1-344, looked up)
chain: MAGSEEVNLIESKTVVPLNTWVLISNFKLAYNLLRRPDGTFNRHLAEFLDRKVPANANPVNGVFSFDVIIDRQTNLLSRVYRPADAGTSPSITDLQNPVDGEIVPVIVFFHGGSFAHSSANSAIYDTLCRRLVGLCGAVVVSVNYRRAPENRYPCAYDDGWAVLKWVNSSSWLRSKKDSKVRIFLAGDSSGGNIVHNVAVRAVESRIDVLGNILLNPMFGGTERTESEKRLDGKYFVTVRDRDWYWRAFLPEGEDREHPACSPFGPRSKSLEGLSFPKSLVVVAGLDLIQDWQLKYAEGLKKAGQEVKLLYLEQATIGFYLLPNNNHFHTVMDEIAAFVNAECQ

Columns and labels:
[1] = target: T1, GST^4CS-RGA^C374S recombinant protein; assay: pull-down
[2] = target: T2, GST^4CS-RGA recombinant protein …; assay: pull-down

Binder | binding result [1] | binding result [2]
B1 | binds | –
B2 | – | binds
B3 | – | binds
